Read-outs that look alike come from different tables or passages of the source.
Legend:
[1] = Degradation of MeGal3, products by HPAE-PAD; format: biochemical; conditions: for Gal2 in reaction products / Gal3 in reaction products / Gal in reaction products / MeGal2 in reaction products / MeGal3 in reaction products / MeGal in reaction products: MeGal3 0.25 mg/ml, pH 6.5, 37° C.
Method: (§1) The activity on the galacto-oligosaccharide substrates prepared as described above and on the commercially available galactobiose (Gal2, Megazyme) was studied for the four purified galactanases HIGAL, MTGAL, AAGAL and BLGAL. The buffers and temperatures used were: 25 mM sodium acetate, 0.5 mM CaCl2, 0.005% Triton X-100, pH 6.5 at 37° C. for HIGAL and MTGAL, 50 mM sodium acetate, 1 mM CaCl2, pH 4 at 30° C. for AAGAL and 50 mM Mes, 1 mM CaCl2, pH 6.5 at 30° C. for BLGAL. Enzyme concentrations used were 0.8 μg/ml for HIGAL, 0.2 microgram/ml for MTGAL, and 10 micrograms/ml for AAGAL and BLGAL. With HIGAL and MTGAL substrate concentrations were all 0.25 mg/ml, whereas 0.34 mg/ml Gal2, 0.050 mg/ml Gal3 and 0.067 mg/ml Gal4 were used for AAGAL and BLGAL. Enzyme activity in samples withdrawn after various incubation times was inactivated by heating to 95° C. for 10 min. Compositions of reaction products were analysed using HPAE-PAD (Dionex) applying a PA-100 column and a linear gradient of sodium acetate (0-0.18 M) in 0.15 M NaOH. Response factors of the individual carbohydrates were estimated from reference runs with MeGal3, MeGal4, Gal, Gal2, Gal3 and Gal4. Selected results are shown in Tables 2-8 below (the figures indicating weight percentage of glactooligosaccharides).

[2] = format: biochemical; conditions: for Gal2 in reaction products / Gal3 in reaction products / Gal4 in reaction products / Gal in reaction products: Gal4 0.25 mg/ml, pH 6.5, 37° C.
Method: as §1

B1: HIGAL: GH Family 53 galactanase from Humicola insolens, SEQ ID NO: 2 (wild type parent) (protein, listed as Humicola insolens)
chain: ALQYKGVDWSSVMVEERAGVRYKNVNGQEKPLEYILAENGVNMVRQRVWVNPWDGNYNLDYNIQLARRAKAAGLGLYINFHYSDTWADPAHQTTPAGWPSDINNLAWKLYNYTLDSMNRFADAGIQVDIVSIGNEITQGLLWPLGKTNNWYNIARLLHSAAWGVKDSRLNPKPKIMVHLDNGWNWDTQNWWYTNVLSQGPFEMSDFDMMGVSFYPFYSASATLDSLRRSLNNMVSRWGKEVAVVETNWPTSCPYPRYQFPADVRNVPFSAAGQTQYIQSVANVVSSVSKGVGLFYWEPAWIHNANLGSSCADNTMFTPSGQALSSLSVFHRI
modifications: mat_peptide (1)..()
- Gal2 in reaction products ([1]; incubation time 0.0 hours): 0.0 weight percentage
- Gal3 in reaction products ([1]; incubation time 0.0 hours): 0.0 weight percentage
- Gal in reaction products ([1]; incubation time 0.0 hours): 0.0 weight percentage
- MeGal2 in reaction products ([1]; incubation time 0.0 hours): 0.0 weight percentage
- MeGal3 in reaction products ([1]; incubation time 0.0 hours): 100.0 weight percentage
- MeGal in reaction products ([1]; incubation time 0.0 hours): 0.0 weight percentage
- Gal2 in reaction products ([1]; incubation time 0.5 hours): 3.9 weight percentage
- Gal3 in reaction products ([1]; incubation time 0.5 hours): 1.2 weight percentage
- Gal in reaction products ([1]; incubation time 0.5 hours): 0.0 weight percentage
- MeGal2 in reaction products ([1]; incubation time 0.5 hours): 3.3 weight percentage
- MeGal3 in reaction products ([1]; incubation time 0.5 hours): 80.3 weight percentage
- MeGal in reaction products ([1]; incubation time 0.5 hours): 11.4 weight percentage
- Gal2 in reaction products ([1]; incubation time 2.2 hours): 12.5 weight percentage
- Gal3 in reaction products ([1]; incubation time 2.2 hours): 3.3 weight percentage
- Gal in reaction products ([1]; incubation time 2.2 hours): 2.3 weight percentage
- MeGal2 in reaction products ([1]; incubation time 2.2 hours): 3.7 weight percentage
- MeGal3 in reaction products ([1]; incubation time 2.2 hours): 59.7 weight percentage
- MeGal in reaction products ([1]; incubation time 2.2 hours): 18.4 weight percentage
- Gal2 in reaction products ([1]; incubation time 5.0 hours): 20.2 weight percentage
- Gal3 in reaction products ([1]; incubation time 5.0 hours): 10.6 weight percentage
- Gal in reaction products ([1]; incubation time 5.0 hours): 3.0 weight percentage
- MeGal2 in reaction products ([1]; incubation time 5.0 hours): 5.2 weight percentage
- MeGal3 in reaction products ([1]; incubation time 5.0 hours): 24.2 weight percentage
- MeGal in reaction products ([1]; incubation time 5.0 hours): 36.8 weight percentage
- Gal2 in reaction products ([1]; incubation time 72.0 hours): 36.2 weight percentage
- Gal3 in reaction products ([1]; incubation time 72.0 hours): 8.0 weight percentage
- Gal in reaction products ([1]; incubation time 72.0 hours): 17.1 weight percentage
- MeGal2 in reaction products ([1]; incubation time 72.0 hours): 4.2 weight percentage
- MeGal3 in reaction products ([1]; incubation time 72.0 hours): 0.0 weight percentage
- MeGal in reaction products ([1]; incubation time 72.0 hours): 34.6 weight percentage
- Release of MeGal versus MeGal2 from MeGal3 ([1]; in words): much higher release of MeGal than MeGal2
- Products of Gal4 (galactotetraose) degradation [2]: mainly to Gal and Gal2, whereas Gal3 did not accumulate
- Gal2 in reaction products ([2]; incubation time 0.0 hours): 0.0 weight percentage
- Gal3 in reaction products ([2]; incubation time 0.0 hours): 42.0 weight percentage
- Gal4 in reaction products ([2]; incubation time 0.0 hours): 58.0 weight percentage
- Gal in reaction products ([2]; incubation time 0.0 hours): 0.0 weight percentage
- Gal2 in reaction products ([2]; incubation time 0.5 hours): 8.1 weight percentage
- Gal3 in reaction products ([2]; incubation time 0.5 hours): 43.2 weight percentage
- Gal4 in reaction products ([2]; incubation time 0.5 hours): 42.9 weight percentage
- Gal in reaction products ([2]; incubation time 0.5 hours): 5.8 weight percentage
- Gal2 in reaction products ([2]; incubation time 2.2 hours): 21.9 weight percentage
- Gal3 in reaction products ([2]; incubation time 2.2 hours): 39.8 weight percentage
- Gal4 in reaction products ([2]; incubation time 2.2 hours): 21.6 weight percentage
- Gal in reaction products ([2]; incubation time 2.2 hours): 16.7 weight percentage
- Gal2 in reaction products ([2]; incubation time 5.0 hours): 34.8 weight percentage
- Gal3 in reaction products ([2]; incubation time 5.0 hours): 23.9 weight percentage
- Gal4 in reaction products ([2]; incubation time 5.0 hours): 5.7 weight percentage
- Gal in reaction products ([2]; incubation time 5.0 hours): 35.6 weight percentage
- Gal2 in reaction products ([2]; incubation time 72.0 hours): 33.6 weight percentage
- Gal3 in reaction products ([2]; incubation time 72.0 hours): 0.9 weight percentage
- Gal4 in reaction products ([2]; incubation time 72.0 hours): 0.2 weight percentage
- Gal in reaction products ([2]; incubation time 72.0 hours): 65.2 weight percentage

Reference: patent publication US8367390B2, “Galactanase variants” (Novozymes A/S, priority 2002, dated 2013)
